The text below walks through data of paper PMC6203816 (Nature Communications, 2018).

The experiment has as its target C1080 envelope on concentrated pseudovirus particles (HIV-1 strain C1080 (clone C1080.c3 …, UniProt I6NF57, strain)). Nature of the experiment: ELISA. The following applies: one partner purified. (ELISA stands for enzyme-linked immunosorbent assay.)

B1: CAP228-3D IgG1 (antibody, V domains shown)
VH: EVQLVQSGAEVKKPGESLKISCKGFGYSFSTYWIAWVRQMPGKGLEWMGMIYPGDSDTKYSPSLQGQVTISGDKSISTAYLQWSSLKASDTAMYYCARLLNNYDSSGFLYWYLDLWGRGTLVTVSS
VL: NFMLTQPHSVSESPGKTVTISCTRSSGSIASDYVQWYQQRPGSSPTTVIYEDNQRPSGVPDRFSGSIDSSSNSASLTISGLKTEDEADYYCQSYDMTNHNWVFGGGTKLTVL
Consider B1, for which the binding result is “binds”.

B2: 830 A (antibody, V domains shown)
VH: QVQLQQWGPGLLKPSETLSLTCAVYGGSFGRYYWSWIRQSSGEGLEWLGQIDHTGSTTYNPSLKGRVTISIDSSTNQFSLKVTSVIAADTAVYYCARAPSGYPGVSLYQYYGLDVWGQGTTVTVSS
VL: DTVMTQSPATLSVSPGERVTLSCRASQIINTNLAWYQKRPGQAPRLLIYAASARATGIPARFSGSGSGTEFTLTISGLQSEDSAVYYCQQYKHWPPYTFGRGTKLEIR
notes: also called V2i mAb 830 A
Turning to B2, the binding result is on record as “binds”.
